According to the supplement of paper PMC12042874:
± gives the uncertainty stated by the source.

Assay: amyloid nucleation score (Sup35N fusion, yeast selection) (log enrichment); library NNK1; higher = more nucleation; inactive = no reads after selection
How it was run: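 DiMSum was used to calculate nucleation scores as log enrichment of output over input reads, centred on the mode score of non-aggregating sequences. Sequences with fewer than 100 input reads were not scored. Input and output came from Illumina sequencing of plasmid inserts in psi-negative yeast expressing peptides of 20 random codons fused to Sup35N, induced 24 hours with 100 μM copper sulfate and then grown 7 days at 30°C on medium lacking adenine and uracil.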

Substance	amyloid nucleation score
SKLFLGGLPCTQYWPRMCMV	-0.356 ± 0.64
SKLTYLTMPSVGEIHFWNPM	3.44 ± 0.18
SKMCY	-0.692 ± 0.43
SKSRMLPIGTRGCRNSQFVE	1.06 ± 0.63
SKYLCNMLPISDLHMGQTFN	-0.391 ± 0.44
SLDEVARVLCP	-0.21 ± 0.58
SLGIHPHVDKLLYRRFQLDY	-0.567 ± 0.77
SLGLFKIIRKPYHCSAPSQA	0.551 ± 0.47
SLIRLCVAVTSTSNPGWPLL	3.09 ± 0.12
SLKCSNGR	0.49 ± 0.3
SLLCYRRGSWGEYIMFNGRL	-0.366 ± 0.84
SLLRARIKVVPV	-1.46 ± 1.6
SLMFTPEYCVED	1.41 ± 0.69
SLNAMFIFLLAYKRGVYEYM	1.25 ± 0.24
SLNKRWCLRTQFGVAMVRTP	0.416 ± 0.99
SLPVLCASRYHLHYRMGFSG	1 ± 0.69
SLRLFEFFWLTFGSSQIHLA	-0.032 ± 0.5
SLRSQCGSVNLIFMVMFSVW	-0.236 ± 1.2
SLSRMVGCTTVF	inactive
SLVALINNCSVSTKMGSLPY	0.87 ± 0.22
SLVLDGVSTPPIDYLNLVLV	-1.26 ± 0.76
SLVLRRLYEVSVTCTAGNAW	0.094 ± 0.98
SLVMGVYRRQCRGNPRAMSK	1.21 ± 0.44
SLYDLTDTAICFAFFYFD	7.95 ± 0.082
SLYMT	0.192 ± 0.34

Substance	amyloid nucleation score
SLYRDYVRFGWLVRCGNGHD	0.078 ± 0.23
SMAPGDSS	0.02 ± 0.34
SMCLCVYIWIALYGWVMLIP	0.217 ± 0.21
SMDLHMYSKFMRYSVFVCNL	1.14 ± 0.79
SMLRCLY	0.758 ± 0.85
SMLRNTNLNAIPKFTVSFVL	-0.021 ± 0.69
SMVRYTMDSKVKKRSSVVVG	3.56 ± 0.18
SNAPFRKAQQRGLYKWWSWR	0.728 ± 0.54
SNDVAFMAIKKHRTLSYQTD	0.165 ± 0.47
SNEVEGLFLKLYNFVPVRQW	0.148 ± 0.26
SNEVVKFKWSCIPETCSRVW	0.429 ± 0.61
SNIWSSKKINTCLGM	1.7 ± 0.16
SNKRNYRLE	0.401 ± 0.62
SNLLPLYP	0.263 ± 1.1
SNLRMLNMASTSPR	-0.368 ± 0.34
SNLWFL	-0.213 ± 0.28
SNMLHWSVRMGHGWW	0.184 ± 1
SNPTYLWVVLLVRSAALRMD	inactive
SNRFFVPRA	-0.334 ± 0.5
SNSAFCNGSVMCVEVSLRHA	7.037 ± 0.062
SNSMLISYSCEFTWGVGKVL	0.242 ± 0.4
SNTICQVGASREEPSCGTQW	1.14 ± 0.97
SNVMWFYSWMWVRVTRRTCL	1.71 ± 0.49
SNWTPCQSESP	-0.311 ± 0.55
SNWYRPTDAARLSLSYSRGG	-0.883 ± 1.1

Substance	amyloid nucleation score
SPFDKIVAHGSRLML	-0.274 ± 0.64
SPLFLVWLTCYKQDPFILVW	inactive
SPNCM	-0.358 ± 1.4
SPSYQRCLQMLEKIWKDLNH	0.497 ± 0.31
SPTVERSTGIR	-0.089 ± 0.49
SPVESQNSNNRLTIMDLIMR	0.574 ± 0.97
SPVLIDVRGM	-0.413 ± 0.5
SQCELWGCSCTPYNRMFSGN	inactive
SQIYTFVDLFLSS	1.26 ± 0.68
SQMLELVFK	0.818 ± 0.75
SQVGYGSRDLEFTWWCGGNG	-0.278 ± 0.58
SRATSYKFSTGRCCWTGTVK	0.072 ± 0.91
SRCLMRMTAPQVQEGACAVC	-0.268 ± 0.38
SRDRNLVGLKLHVTVNKDVF	-1.41 ± 2.4
SRFWKRVHAYTAVISEMYSA	-0.132 ± 0.52
SRIFCTWPVSVIYNRADSAQ	0.838 ± 0.56
SRKCGDVCSKDGRPVCPGTE	1.67 ± 0.15
SRLATQTRLKMAGSISLFRS	-0.208 ± 1.2
SRLSQDPRTSSAIMSWLRYS	0.886 ± 1.1
SRNLCSQSWIRTATV	0.585 ± 0.56
SRNLLPSDTSHQVMYPVSTK	0.568 ± 0.28
SRPNDMFTALVYTCYLPNK	-0.539 ± 0.6
SRQRSYRDWVATFTF	-0.339 ± 0.52
SRRNYWVFGGHMFND	-0.134 ± 1.7
SRRVQLYVLGFRGIKSGTFL	-0.066 ± 0.62

Substance	amyloid nucleation score
SRSIRSYDPWMVCMSMWLSD	1.13 ± 0.9
SRSRRANYGLCDIRYYNSFE	0.862 ± 0.43
SRTGRH	0.972 ± 0.93
SRTHRDGTCYHSGTVKVHLP	-1.64 ± 2.7
SRTICGSEILTSKKTRFHAS	-0.702 ± 1.7
SRTVFGCEDIRERRWVFWEI	0.647 ± 0.69
SRTYFESRDFEEYRAMRPSL	inactive
SRTYPVDMFPMSLKLSINVL	-0.125 ± 0.79
SRVQYLILDIMVTRYGASTS	-0.262 ± 0.53
SRYYLSRPVLRYG	0.546 ± 0.42
SSCKCRCGFD	-0.699 ± 0.67
SSCYDRVLYAPDRRR	1.23 ± 0.45
SSGAYSLSKWYQYRMFSVVL	-0.771 ± 0.66
SSGFYLWCALYRSRGHCNDY	1.6 ± 0.18
SSGVFTSI	-0.042 ± 0.66
SSITVITVATQVEYNTVHDF	1.37 ± 0.45
SSKLDVCEFADDGQLVFGVG	-0.394 ± 0.61
SSLASMASVDRKNHRGSGEG	1.77 ± 0.11
SSLGNEFIFDSFGNK	-0.772 ± 0.73
SSLLFEPATASFILQD	-0.894 ± 0.68
SSLPRPPMPKWSDV	0.125 ± 0.88
SSMLSISVFEWITFRWR	0.181 ± 0.58
SSQRGGNPGIMFNWEIVLRG	2.59 ± 0.14
SSSFTSNSFLLLLWSYKDMF	1.16 ± 0.21
SSVILSDCSCFMVHQCWYLC	-2.13 ± 2.7

Substance	amyloid nucleation score
SSWSGMFTCSYTMMLWLRRL	-0.692 ± 0.75
STDLSYVSCAYVSTFLPNFR	2.2 ± 0.21
STILPIGWNFDCCITISSCV	0.372 ± 0.28
STMFYLIFCQCTSIYANLYQ	0.063 ± 0.41
STPAVDALRYCMTSIAFRKI	-1.11 ± 0.58
STRHPTKNR	0.823 ± 0.21
STRSLSCLFLNRTSHCLGTL	-0.721 ± 1.4
STVREFSVVGPYVTGSVAGR	0.383 ± 0.71
STYPLEEYKGSGCLAG	-0.522 ± 0.39
SVANGALSRLAYIKRYRVWW	0.522 ± 0.45
SVARFNVWVVLSSRNVTCQS	1.82 ± 0.12
SVDNMVGVTGSFGGARVILS	-0.237 ± 0.39
SVDVTRIIMIVVCRFKMWEL	0.736 ± 0.32
SVESYTKAISIYTIGERIVL	-0.004 ± 1.6
SVFELLCSPQSVNRTFNTPY	1.09 ± 0.36
SVFSLVYGKN	0.685 ± 0.81
SVGLTFNGGVYCSHVERTSW	1.93 ± 0.19
SVKRMWYLDV	-0.483 ± 0.32
SVLCELRV	-0.182 ± 0.36
SVLRRQDFTKLLMFRSGPLG	0.424 ± 0.38
SVLSSLVSEISGVVCLVLGH	-0.214 ± 0.57
SVNKSSKVFTELANVHERAL	0.136 ± 0.66
SVNRLTLKPSYAKYRVYSGH	0.46 ± 0.68
SVNTPTGSIFEICQYDSIKG	-0.302 ± 0.45
SVPMMSML	0.019 ± 0.25

Substance	amyloid nucleation score
SVSEWRQVILIIGVIVK	-0.278 ± 0.51
SVSVQERTSGVYSHVSSENY	-0.162 ± 0.45
SVSVSCFVV	inactive
SVSWYAMLRLSEIRDRCKSF	0.278 ± 0.32
SVSYVELLGAFIKGLGIIYF	-0.999 ± 0.63
SVVFGSSYRNAVGCWTWSQG	0.6 ± 0.4
SVVFLQRFLDR	-0.564 ± 1.2
SVVNDFVYRL	-0.588 ± 0.86
SVVSFINLIASYFRELVGAV	0.225 ± 0.95
SVWFWFSKGWFSLCWAFFEK	0.428 ± 1.2
SWALRWYPELIET	0.076 ± 0.29
SWEQMSYASSFISNVGRHKG	1.34 ± 0.2
SWGTGVIPMVRNSLRECTEL	-0.388 ± 0.98
SWIHVHHL	0.691 ± 0.7
SWMNS	0.759 ± 0.55
SWNRGVLESHKHAYFALPQF	0.417 ± 0.24
SWNVVFKVPLGLRVLYGYLC	-0.197 ± 0.28
SWSPRHELPLGKLRWIWDRG	1.03 ± 0.75
SWSSGGNFARFIQYVPATHA	0.117 ± 0.72
SWSSVQSAVKGHPLGGNTGR	-0.72 ± 0.74
SWVWCYWILSWIREFLLRQG	0.447 ± 0.42
SWWLICYYVSWYFSD	-1.69 ± 1.1
SWYCGTASLVAKAVADRAGD	0.062 ± 0.5
SYAMLCIYVGYFIFLNSRMS	inactive
SYCYKDGWELVLEYLFVNCT	1.21 ± 0.45

Substance	amyloid nucleation score
SYECVQNRQCAIGGNRSERF	0.666 ± 0.93
SYEVFEIISNCLEY	-0.321 ± 0.35
SYGDQSVEKSLRSTATPDPQ	0.105 ± 0.35
SYGLWHMAM	-0.232 ± 0.54
SYHSMA	inactive
SYILCHWTFGDKGRFPQNYR	2.3 ± 0.18
SYILEKGLQTAYCVC	1.42 ± 0.46
SYKGWVGLVLRVETDGNWSR	2.28 ± 0.13
SYKSWQ	0.978 ± 0.43
SYLFWDRCYSA	-0.247 ± 0.4
SYLGCVHWSRRTDLVTFFDF	0.495 ± 0.27
SYLNPTVMILGFYP	0.825 ± 0.41
SYPESTTRNF	-0.209 ± 0.39
SYRIMPLMCILNCLFNCIYI	4.8 ± 0.059
SYRPFLMLGAQLQPYRVSGS	1.32 ± 0.6
SYRSYGSSSCSVWRTAAGDQ	2.9 ± 0.084
SYTRPILIWSLNRFSAG	1.26 ± 0.34
SYVKDNISVSGADILTGAIC	-0.367 ± 0.48
SYVYHPTSRLVWIIRMIT	0.5 ± 0.38
TAIIPPHFLASDSFRWSCAC	0.008 ± 0.34
